The chains are these.
B1: P015012 scFv (scFv, V domains shown)
VH: EVQLLESGGGLVQPGGSLRLSCAASGFTFSGYSMSWVRQAPGKGLEWVSGISYGGSSISYADSVKGRFTISRDNSKNTLYLQMNSLRAEDTAVYYCAKPVRRWARFRLSYDDAMDVWGQGTLVTVSS
VL: QSVLTQPPSASGTPGQRVTISCSGSSSNIGNNAVNWYQQLPGTAPKLLIYANSHRPSGVPDRFSGSKSGTSASLAISGLRSEDEADYYCGTWDSSLSGYVFGGGTKLTVL
notes: HA-tagged scFv
B2: P015021 scFv (scFv, V domains shown)
VH: EVQLLESGGGLVQPGGSLRLSCAASGFTFSSYAMSWVRQAPGKGLEWVSWISPGGGNIYYADSVKGRFTISRDNSKNTLYLQMNSLRAEDTAVYYCARSQSGFDYWGQGTLVTVSS
VL: B1 VL with A33S, N35T, A51Y, N52D, T91A, S97N
notes: HA-tagged scFv
B3: P015006 scFv (scFv, V domains shown)
VH: EVQLLESGGGLVQPGGSLRLSCAASGFTFSNYSMSWVRQAPGKGLEWVSAISHGSGSIYYADSVKGRFTISRDNSKNTLYLQMNSLRAEDTAVYYCAKPISAWSHIRMSYAYGMDVWGQGTLVTVSS
VL: QSVLTQPPSASGTPGQRVTISCTGSSSNIGSNYVSWYRQLPGTAPKLLIYSDSNRPSGVPDRFSGSKSGTSASLAISGLRSEDEADYYCATWDASLSAYVFGGGTKLTVL
notes: HA-tagged scFv
B4: P015013 scFv (scFv, V domains shown)
VH: EVQLLESGGGLVQPGGSLRLSCAASGFTFSSYDMSWVRQVPGKGLEWVSWISHGGGSIYYADSVKGRFTISRDNSKNTLYLQMNSLRAEDTAVYYCARDLSNRLFTGFDYWGQGTLVAVSS
VL: B1 VL with N31S, A33S, N35Y, L47P, A51S, N52D, S94Y, S97N, G98A
notes: HA-tagged scFv
B5: P015009 scFv (scFv, V domains shown)
VH: EVQLLESGGGLVQPGGSLRLSCAASGFTFSNYSMSWVRQAPGKGLEWVSGIYSGNSNTYYADSVKGRFTISRDNSKNTLYLQMNSLRAEDTAVYYCAKDSRATHHRWHYYDNAMDVWGQGTLVTVSS
VL: B3 VL with A90G, A94S, A98G
notes: HA-tagged scFv
B6: P015043 scFv (scFv, V domains shown)
VH: B2 VH with S31N, A33D, G56S, N57S, R98K, S99T, Q100L, S101T, G102R
VL: B1 VL with S23T, A33N, N35S, A51Y, N52D
notes: HA-tagged scFv
B7: P015003 scFv (scFv, V domains shown)
VH: EVQLLESGGGLVQPGGSLRLSCAASGFTFSSYAMSWVRQAPGKGLEWVSGISPGGSSKYYADSVKGRFTISRDNSKNTLYLQMNSLRAEDTAVYYCARGPHRAIDTAFDYWGQGTLVTVSS
VL: B3 VL
notes: HA-tagged scFv
B8: P015010 scFv (scFv, V domains shown)
VH: EVQLLESGGGLVQPGGSLRLSCAASGFTFSNYAMSWVRQAPGKGLEWVSGISPNGSSIYYADSVKGRFTISRDNSKNTLYLQMNSLRAEDTAVYYCAKAARLSPSRNYSYAYGMDVWGQGTLVTVSS
VL: B1 VL with S23T, A33N, N35T, A51S, N52D, H54Q, S94Y, S97N
notes: HA-tagged scFv
B9: P015039 scFv (scFv, V domains shown)
VH: EVQLLESGGGLVQPGGSLRLSCAASGFTFSDYAMSWVRQAPGKGLEWVSWISPGGGNTYYADSVKGRFTISRDNSKNTLYLQMNSLRAEDTAVYYCAKGALMCLSATCSSDYGMDVWGQGTLVTVSS
VL: B1 VL with S23T, N35S, A51S, N52D, S53N, H54Q, S94Y, S97N
notes: HA-tagged scFv
B10: P015002 scFv (scFv, V domains shown)
VH: EVQLLESGGGLVQPGGSLRLSCAASGFTFSDYSMSWVRQAPGKGLEWVSGISHNGGSTYYADSVKGRFTISRDNSKNTLYLQMSSLRAEDTAVYYCARDVSRWSKTRWSYDNAMDVWGQGTLVTVSS
VL: B3 VL
notes: HA-tagged scFv
B11: P015005 scFv (scFv, V domains shown)
VH: B10 VH
VL: B1 VL with N31S, A33Y, A51S, N52D, T91S, S97N, G98A, F101L
notes: HA-tagged scFv
B12: P015040 scFv (scFv, V domains shown)
VH: B8 VH
VL: B1 VL with S23T, A33N, N35T, A51S, N52D, H54Q, E82K, S94Y, S97N
notes: HA-tagged scFv
B13: P015041 scFv (scFv, V domains shown)
VH: B8 VH
VL: B1 VL with S23T, A33N, N35T, A51S, N52D, H54Q, D93E, S94Y, S97N
notes: HA-tagged scFv
B14: P015038 scFv (scFv, V domains shown)
VH: B8 VH with L5Q, Q13L, S30N
VL: B1 VL with S23T, A33N, N35T, A51S, N52D, H54Q, S94Y, S97N
notes: HA-tagged scFv
B15: P015022 scFv (scFv, V domains shown)
VH: EVQLLESGGGLVQPGGSLRLSCAASGFTFSNYDMSWVRQAPGKGLEWVSSISSNGGSTYYADSVKGRFTISRDNSKNTLYLQMNSLRAEDTAVYYCAKCLLQFDYWGQGTLVTVSS
VL: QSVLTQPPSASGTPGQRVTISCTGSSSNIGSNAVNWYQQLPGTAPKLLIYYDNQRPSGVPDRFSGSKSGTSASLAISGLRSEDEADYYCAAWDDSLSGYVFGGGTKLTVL
notes: HA-tagged scFv
B16: P015044 scFv (scFv, V domains shown)
VH: EVQLLESGGGLVQPGGSLRLSCAASGFTFSNYAMHWVRQAPGKGLEWVSIIYPDDDTRYNPSFRGRFTISRDNSKNTLYLQMNSLRAEDTAVYYCARDLLYAGDYWGQGTLVTVSS
VL: QSVLTQPPSASGTPGQRVTISCGGNNIESKAVHWYQQLPGTAPKLLIYANNKRPSGVPDRFSGSKSGTSASLAISGLRSEDEADYYCQSYDSNKVVFGGGTKLTVL
notes: HA-tagged scFv
B17: P015020 scFv (scFv, V domains shown)
VH: B15 VH with N31G, D33Y, S50V, S53H, N54D, G56S, C99V, L100K, L101Y, Q102I
VL: B1 VL with S23T, A33T, N52D, H54N, G90D, S97N, G98A
notes: HA-tagged scFv
B18: P015042 scFv (scFv, V domains shown)
VH: EVQLLESGGGLVQPGGSLRLSCAASGFTFSDYAMSWVRQAPGKGLEWVSVISSDGGSIYYADSVKGRFTISRDNSKNTLYLQMNSLRAEDTAVYYCAKDRSRDMEVDFDYWGQGTLVTVSS
VL: B1 VL with N31S, A33Y, N35T, A51D, N52S, H54Q, S94Y
notes: HA-tagged scFv
B19: P015001 scFv (scFv, V domains shown)
VH: EVQLLESGGGLAQPGGSLRLSCAASGFTFSNYDMSWVRQAPGKGPEWVSGIYSGNSNTYYADSVKGRFTISRDNSKNTLYLQMNSLRAEDTAVYYCARDLQYTEWAGFDYWGQGTLVTVSS
VL: B1 VL with N31S, A33D, N35T, A51D, N52D, H54K, G90A, T91A, S94D
notes: scFv of a phage-library clone from a bacterial extract, with HA tag
B20: P015024 scFv (scFv, V domains shown)
VH: EVQLLESGGGLVQPGGSLRLSCAASGFTFSDYYMSWVRQAPGKGLEWVSLISPGSDSKYYADSVKGRFTISRDNSKNTLYLQMNSLRAEDTAVYYCAKIEPDFDYWGQGTLVTVSS
VL: B1 VL with N31S, A33T, V34F, N52D, G90A, S94Y, G98A
notes: HA-tagged scFv
B21: P015023 scFv (scFv, V domains shown)
VH: EVQLLESGGGLVQPGGSLRLSCAASGFTFSGYDMSWVRQAPGKGLEWVSGISHDGRSKYYADSVKGRFTVSRDNSKNTLYLQMNSLRAEDTAVYYCAKDVPFKMRFIFDYWGQGTLVTVSS
VL: B1 VL with I20L, S23T, N31S, A33T, N35Y, N52D, H54Q, T91S, S97N, G98A
notes: HA-tagged scFv
B22: P015011 scFv (scFv, V domains shown)
VH: B8 VH with N54D, S56G, R106M
VL: B1 VL with S23T, A33Y, N35S, A51S, N52D, S94Y, S97N
notes: HA-tagged scFv
B23: P015014 scFv (scFv, V domains shown)
VH: EVQLLESGGGLVQPGGSLRLSCAVSGFTFSSYSMSWVRQAPGKGLEWVSAISPGDSNKYYADSVKGRFTISRDNSKNTLYLQINSLRAEDTAVYYCARTFPYFDYWGQGTLVTVSS
VL: B1 VL with Q16E, G24S, N31S, A33Y, A51D, H54Q, T91S, S94D
notes: HA-tagged scFv

Where a chain is given by its changes, count along the chain named.

The record followed here is US20260028400A1 (AIMED BIO, published 2026).

T2 sequence (Q01973 165-305 limits assumed): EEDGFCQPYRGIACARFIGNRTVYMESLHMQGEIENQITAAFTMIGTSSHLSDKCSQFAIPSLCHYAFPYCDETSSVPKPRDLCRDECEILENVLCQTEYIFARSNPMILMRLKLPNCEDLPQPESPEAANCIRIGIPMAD
T3 sequence (Q01973 165-395 limits assumed): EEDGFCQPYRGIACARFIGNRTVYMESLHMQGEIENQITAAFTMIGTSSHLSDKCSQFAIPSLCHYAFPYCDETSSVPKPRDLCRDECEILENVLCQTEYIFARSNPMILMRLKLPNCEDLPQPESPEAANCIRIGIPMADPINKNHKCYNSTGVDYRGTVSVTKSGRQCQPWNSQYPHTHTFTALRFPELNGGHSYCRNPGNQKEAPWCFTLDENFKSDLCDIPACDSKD

For one assay, the target named is T1, Ig-like (human, UniProt Q01973).
T1 construct: Ig-like domain, His tag; also called Ig-like domain; human ROR1-immunoglobulin domain
T1 sequence (Q01973 39-151 limits assumed): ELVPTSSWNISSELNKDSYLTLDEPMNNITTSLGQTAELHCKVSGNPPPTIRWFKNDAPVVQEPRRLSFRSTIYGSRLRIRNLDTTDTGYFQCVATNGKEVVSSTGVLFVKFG
Description: scFv ELISA on coated domain, anti-HA-HRP, OD450. The method, then:
(§1) Thereafter, the plate was treated with each scFv and reacted for 2 hours, followed by washing four times using PBST and distilled water. After binding at room temperature for 1 hour using an HRP-conjugated anti-HA antibody (Roche, 12013819001, Anti-HA-Peroxidase, High Affinity) capable of binding to the HA tag, washing was performed six times using PBST and distilled water. After color development by adding TMB substrate solution (Thermo Scientific, 34029, 1-Step™ Ultra TMB-ELISA Substrate Solution), the color reaction was stopped with stop solution (Invitrogen, SS04, ELISA Stop Solution), and the absorbance was measured at OD 450 nm. The scFv binding to each domain was analyzed through ELISA.
On the technique in general: An ELISA detects its analyte on a solid surface through an enzyme-linked reagent.
On to B1, for which the binding result is “no binding”. The same measure, in the same setting: the result for B2 reads “no binding”; that for B3, “no binding”. Same read-out and setting: as for B4, the entry is “no binding”; as for B5, “no binding”.

As for B6, the binding result is reported as “no binding”.

With B7, the binding result is “no binding”. Still for that read-out and setting: the result for B8 reads “binds”.

With B9, the binding result is “binds”. The same measure, in the same setting: as for B10, the entry is “no binding”. The same measure, in the same setting: the result for B11 reads “no binding”; that for B12, “binds”.

Take B13: the binding result is “binds”.

Take B14: the binding result is “binds”.

Another assay addresses T2, FZD (human, UniProt Q01973).
T2 construct: frizzled domain, His tag; also called Frizzled domain; human ROR1-frizzled domain
Description: scFv ELISA on coated domain, anti-HA-HRP, OD450. The method, then:
as §1
With B15, the binding result is recorded as “no binding”. The same measure, in the same setting: as for B16, the entry is “no binding”.

B3: the binding result is recorded as “binds”. Still for that read-out and setting: as for B17, the entry is “no binding”.

As for B4, the binding result is recorded as “binds”. The same measure, in the same setting: as for B5, the entry is “binds”. Same read-out and setting: the result for B18 reads “no binding”. Same read-out and setting: the result for B19 reads “no binding”. In the case of B20, the binding result was “no binding”. B21: the binding result is “no binding”.

As for B22, the binding result is recorded as “no binding”.

A further assay concerns the target T3, FZD+KRD (human, UniProt Q01973).
T3 construct: frizzled plus kringle domains, His tag; also called FK domain; human ROR1-frizzled-kringle domain
Description: scFv ELISA on coated domain, anti-HA-HRP, OD450. The procedure:
as §1
As to B15, the binding result is recorded as “no binding”.

As for B16, the binding result is given as “no binding”.

As to B23, the binding result is “no binding”. Still for that read-out and setting: as for B17, the entry is “no binding”; as for B18, “no binding”. Same read-out and setting: the result for B9 reads “no binding”. Same read-out and setting: as for B20, the entry is “no binding”. With B21, the binding result is “no binding”.
